Changes are numbered by the printed parent chain. Names may count otherwise.
B1: dynK44A: dominant-negative dynamin mutant that cannot bind GTP (protein, UniProt Q05193 1-864, looked up, variant K44A)
Dynamin-1: MGNRGMEDLIPLVNRLQDAFSAIGQNADLDLPQIAVVGGQSAGASSVLENFVGRDFLPRGSGIVTRRPLVLQLVNATTEYAEFLHCKGKKFTDFEEVRLEIEAETDRVTGTNKGISPVPINLRVYSPHVLNLTLVDLPGMTKVPVGDQPPDIEFQIRDMLMQFVTKENCLILAVSPANSDLANSDALKVAKEVDPQGQRTIGVITKLDLMDEGTDARDVLENKLLPLRRGYIGVVNRSQKDIDGKKDITAALAAERKFFLSHPSYRHLADRMGTPYLQKVLNQQLTNHIRDTLPGLRNKLQSQLLSIEKEVEEYKNFRPDDPARKTKALLQMVQQFAVDFEKRIEGSGDQIDTYELSGGARINRIFHERFPFELVKMEFDEKELRREISYAIKNIHGIRTGLFTPDMAFETIVKKQVKKIREPCLKCVDMVISELISTVRQCTKKLQQYPRLREEMERIVTTHIREREGRTKEQVMLLIDIELAYMNTNHEDFIGFANAQQRSNQMNKKKTSGNQDEILVIRKGWLTINNIGIMKGGSKEYWFVLTAENLSWYKDDEEKEKKYMLSVDNLKLRDVEKGFMSSKHIFALFNTEQRNVYKDYRQLELACETQEEVDSWKASFLRAGVYPERVGDKEKASETEENGSDSFMHSMDPQLERQVETIRNLVDSYMAIVNKTVRDLMPKTIMHLMINNTKEFIFSELLANLYSCGDQNTLMEESAEQAQRRDEMLRMYHALKEALSIIGDINTTTVSTPMPPPVDDSWLQVQSVPAGRRSPTSSPTPQRRAPAVPPARPGSRGPAPGPPPAGSALGGAPPVPSRPGASPDPFGPPPQVPSRPNRAPPGVPSRSGQASPSRPESPRPPFDL
B2: dynR725A: dynamin mutant (SEQ ID NO.4) with impaired GTP hydrolysis capacity (protein, listed as Homo sapiens)
chain: B1 Dynamin-1 with A44K, R725A
B3: dynL356Q, G358V: dynamin mutant (SEQ ID NO.3) not recognized by cathepsin L; ELSGGA mutated to EQSVGA (protein, listed as Homo sapiens)
chain: B1 Dynamin-1 with A44K, L356Q, G358V

Experiments:
mice = experiment: Protein in urine after in vivo gene delivery of dynamin mutants into healthy mice (Bradford); design: species or system mouse; details: for proteinuria after gene delivery, in words: healthy mice
Protocol: Next, the level of urinary protein loss following gene delivery of dynamin mutants was examined (Table 2). […] The expression of K44A was associated with severe proteinuria (1.18 mg/ml) at peak gene expression time of 10 hours post injection. The reduction in gene expression was paralleled by a reduction in proteinuria (0.77 mg/ml). Gene transfer of dynR725A caused an increase in proteinuria (0.58 mg/ml). Although this was not a significant increase, it is probable that it is a consequence of the partial podocyte FP effacement seen after gene transfer of dynR725A, and due to increase in the stress fibers formation observed in cultured podocytes.
To explore whether functional dynamin is required for the maintenance of FP morphology in healthy kidneys, it was examined whether expression of dominant negative dynK44A disrupts podocyte function. […] In contrast, podocin driven expression of dynK44A, the dynamin mutant that cannot bind GTP, caused FP effacement (FIG. 21B) and proteinuria (1.1±0.26 mg/ml) at the peak of gene expression […] after gene delivery (FIGS. 21D and 25C). […] In other words, tight regulation of the life-time of the GTP-bound form of dynamin appears to be required for normal FP morphology and ultrafiltration.
(§1) CatL plasmids encoding short and long CatL (Goulet et al., Biol Chem 387, 1285-1293 (2004)), Dyn1 plasmids (pcDNA-driven) or p2.5 Podocin-driven (Moeller et al., Genesis 35, 39-42 (2003)) were introduced into mice (n>10, each construct) using the TransIT in vivo gene delivery system according to the manufacturer's instruction (Mirus Bio Corporation, Madison, Wis.). 10 and 24 h after gene delivery, proteinuria was assessed by Multistix 8 SG strips (Bayer Corporation, Elkhart, Ind.), and Bradford protein assay (Sigma, Saint Louis, Mo.). From the same urines the protein creatinine ratio was determined with Albuwell M and Creatinine Companion protein creatinine ELISA kits (Exocell Inc., Philadelphia, Pa.).

CatL = experiment: Dynamin p40 fragment in kidney extracts after gene delivery and LPS injection; assay type: in vivo, mouse; details: LPS injected at the time of gene delivery
Text: Next the cleavage pattern of dyn1 in kidney extracts following LPS injection was examined. Kidney cytosols were probed with antibody against the GTPase domain of dynamin, which detects p40. […] Western blotting also detected a dynamin fragment of ˜55 kD. As in cultured podocytes, the presence of this fragment was LPS- and CatL-independent (FIGS. 20B, lane 5 and 20C, lanes 1 and 2), further supporting the idea that it is generated by other proteases during tissue preparation.
Four mice kidneys were homogenized in buffer containing 20 mM HEPES pH 7.5, 100 mM NaCl, 1 mM MgCl2, 1 mM PMSF, proteinase inhibitors, calpain inhibitor (Calbiochem, San Diego, Calif.) and E-64d using dounce homogenizer. Subsequently, cytosol was centrifuged for 10 min at 7000 rpm. Proteins were solubilized by 1% Triton X, 1 h at 4° C., before it was spun at 50,000 rpm for 1 h.
as §1

podocytes = experiment: Rhodamine-transferrin uptake (endocytosis) in podocytes; assay type: cell-based, mouse; details: overexpression in podocytes
Protocol: Since dynamin is known to play a major role in regulation of clathrin-mediated endocytosis, it appeared possible that the observed actin phenotypes as described above were indirect consequence of changes in endocytosis. […] While LPS treatment of cells overexpressing dynWT had no effect on endocytosis of rhodamine-transferrin (FIG. 1D), it did induce cell motility and changes in actin cytoskeleton.
Conditionally immortalized mouse podocyte cell lines were grown as described previously (Mundel et al., Exp Cell Res 236; 248-258; (1997)). Dynamin antibodies: Anti-dynamin (hudy 1) monoclonal antibody was purchased from Upstate Technology (Lake Placid, N.Y.); mouse anti-dyn1 monoclonal antibody (MAB 5402) was from Chemicon (Temecula, Calif.); mouse anti-dyn1 monoclonal antibody (VAM-SVO41) was from StressGene (Victoria, Canada). The rabbit antiserum against mouse CatL was used as described (Ishidoh and Kominami, 1994). For immunogold and immunocytochemistry analysis of CatL, we used a rabbit polyclonal antibody against CatL as described before (Ahn et al., Traffic 3, 147-159 (2002)). CatL −/− fibroblasts were maintained as described previously (Hsieh et al., J Immunol 168, 2618-2625 (2002)). Stable CatL knock-down cell lines were generated with a vector-based siRNA directed against CatL (target sequence 5′-GTGGACTGTTCTCACGCT-3; SEQ ID NO.32). Quantitative PCR was performed on a Applied Biosystems 7300 Real-Time PCR System. Fold-expression changes were calculated using the comparative CT method for relative quantitation with the equation 2^−ΔΔCT. Protein expression levels for dynamin and CatL were calculated using densitometric analysis with Kodak imaging software. Statistical significance was assessed with the unpaired t-test with Welch's correction. Transfections with CatL constructs were performed using Lipofectamine 2000 (Invitrogen) following manufacturer's instructions. Immunocytochemical analysis of cultured podocytes was done as described (Reiser et al., J Biol Chem 279, 34827-34832 (2004)). Immunoperoxidase labeling of human tissue was done on formalin fixed kidney biopsies embedded in paraffin. Transmission electron microscopy (TEM) and immunoelectron microscopy (IEM) were performed as described (Regele et al., J Am Soc Nephrol 11, 403-412 (2000)). Subcellular fractionation of cultured cells was performed as described (Damke et al., J Cell Biol 127, 915-934 (1994)). Internalization of rhodamine-transferrin (R-Tfn) was performed using 20 μg/ml R-Tfn in PBS containing 1 mM CaCl2, 1 mM MgCl2, 5 mM glucose, and 0.2% BSA for 10 min at 37° C.

podocyte FP = experiment: Podocyte foot process architecture by electron microscopy after gene delivery; assay type: in vivo, mouse; details: gene delivery into wildtype mice
Text: Next it was explored whether gene delivery of dynamin mutants dynR725A and dynL356Q, G358V into mice can be expressed in podocytes and if this procedure can affect podocyte FP architecture and function. First, we needed to establish a safe and reliable detection system of transferred gene expression in podocytes. Therefore we analyzed which dynamin isoforms are expressed in podocytes by RT-PCR. Podocytes express mainly dynamin 2 and little dynamin 3 but no dynamin 1 (FIG. 5A). Gene-transfer CMV promotor driven dynamin 1 constructs were used because neuronal dynamin protein is normally not expressed in podocytes and could be easily tracked by a specific monoclonal dynamin 1 antibody (FIG. 5B). […] Monoclonal dynamin antibodies MAB 5402 […] were used, which predominantly recognize dynamin 1 (FIG. 5B). Labeling of glomerular sections with MAB 5402 detected some minimal background labeling of dynamin, representing endogenous dynamin 2 (FIG. 5C). The gene transfer of dynamin 1 expression vectors led to a strong expression of dynamin 1 in glomerular cells including podocytes (FIG. 5D). Some of this labeling was also detected in podocytes, which are marked positively by synaptopodin staining, resulting in a yellow staining pattern (FIG. 5E).

[1] = Table 2A, gene delivery into mice, t = 0
[2] = Table 2A, gene delivery into mice, t = 10 h
[3] = Table 2A, gene delivery into mice, t = 24 h
[4] = Table 5 Basic Phenotype, podocin-driven vectors, t = 14 h

CatL, sequence (P06797 114-333 limits assumed): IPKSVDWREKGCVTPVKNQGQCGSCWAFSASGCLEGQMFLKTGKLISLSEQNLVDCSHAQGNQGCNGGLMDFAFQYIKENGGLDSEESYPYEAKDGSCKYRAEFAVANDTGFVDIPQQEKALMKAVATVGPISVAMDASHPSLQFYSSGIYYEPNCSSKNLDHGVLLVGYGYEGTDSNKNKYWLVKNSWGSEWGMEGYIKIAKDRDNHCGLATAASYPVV

Molecule | Protein in the urine (mice; [1]) | Protein in the urine (mice; [2]) | Protein in the urine (mice; [3]) | proteinuria after gene delivery, in words (mice) | generation of p40 in kidney extracts, in words (CatL) | transferrin uptake (endocytosis), in words (podocytes) | podocyte FP architecture, in words (podocyte FP) | Protein in the urine (mice; Table 2A, gene delivery into mice, t = 10 h, listed as Dyn K44A) | Protein in the urine (mice; Table 2A, gene delivery into mice, t = 10 h, listed as K44A) | Protein in the urine (mice; Table 2A, gene delivery into mice, t = 24 h, listed as Dyn K44A) | Protein in the urine (mice; Table 2A, gene delivery into mice, t = 24 h, listed as K44A) | Protein in the urine (mice; [4]) | Protein in the urine (mice; Table 2A, gene delivery into mice, t = 10 h, listed as Dyn R725A)
dynWT: wild type dynamin overexpressed by adenovirus or delivered as dynamin 1 cDNA | 0.27 ± 0.06 mg/mL | 0.37 ± 0.08 mg/mL | 0.42 ± 0.12 mg/mL | did not lead to increase of the protein in urine | generation of p40 | did not enhance the overall transferring uptake | did not result in changes of podocyte FP architecture |  |  |  |  |  | 
B1 | 0.23 ± 0.11 mg/mL |  |  |  |  | completely inhibited transferring uptake | induced a severe rearrangement of the actin based podocyte FPs | 1.18 ± 0.22 mg/mL | 1.18 mg/mL | 0.77 ± 0.11 mg/mL | 0.77 mg/mL | 1.1 ± 0.26 mg/mL | 
B2 | 0.26 ± 0.13 mg/mL | 0.58 mg/mL | 0.20 ± 0.05 mg/mL |  | did not result in generation of p40 | exhibited the wild-type levels of endocytosis | resulted in partial FP effacement |  |  |  |  | 0.88 ± 0.21 mg/mL | 0.58 ± 0.17 mg/mL
B3 | 0.22 ± 0.06 mg/mL | 0.33 ± 0.21 mg/mL | 0.40 ± 0.15 mg/mL | did not result in proteinuria | not generated |  | did not show any significant changes in podocyte FP structure |  |  |  |  |  | 

Reference: patent publication US9144594B2, “Cathepsin L mediated diseases and associated methods and products” (University of Miami, priority 2005, dated 2015)
